Results taken from the DeepSol protein solubility set.

Test: soluble on expression in E. coli; label from the status in PepcDB or PDB records

Row | Sequence | soluble on expression in E. coli
1 | GPGSMRSLVVHLLSYTQRFASAKPTILYVPQKTLIAEQVMEDEFKLSHTFPSLRIASLDLDYVFLEEKFFTMTLPLSFKSVFADGDLSNLTWIARLLLKLQTARFGAIRHIRGKGSNAAKVIQLLQRMQNNISHDFITDIPSEVETLIIIDRSVDFVTPLMTQLTYEGLIDELYDIENCEVQFPFSLGESSGVGASEKVVLNSTDRMFAEIRDRSFTGVGSVLYQKSIWVKQNYDKRKEVQQLKELKEFMKGLPEMQEMHRLIGIHTNVATEISKTTQRTDFRKRIMFEHNIIQQTNEGDVLRYIEDLVFRKEKFEVVLRLLALLSLVNSGLREKDLLGLKENMMLVYGIPHVITAFFMLERCGLLCAQSGKGSSYSTIRKQLRTWNSSVPEGQPNDIAYAYGGYAPPFVRMVDTLLRNPQAWDAEDDAPSLLPGEKKELMNDVEIAGTTKTAIVFVIGGITASEVSALRFVEERLSSGGRPHRIFIGTTDIISGNRMIRSLLPFEPAR | not soluble
2 | MKAYQRYRFPSLRSVARDASARDSAALAAEAQCADIDARIEEGFRQGREDGYRDGFEHGEAEGMKQGREAGFAAGAQQARDALRSEYAGIAKTLDAMRDAFVRVQAEYLAARRTELVDVVAKVAKQVIRCELTLQPSQMAALIEETLGTMPASSDAPEVHLSPDDHERLAGLLPERARHWRLVPDARLEAGECRVLLGGNEADAGCQHRLDACVERIGEQLPGAPDVEAAAT | not soluble
3 | MSGKERNLPTHRISRFSKFASLATRVAGNVIAEGTKQIAKGNRPKAKDLLLTPQNIARLTDQLAHLRGAAMKLGQMLSMDAGDILEPELAEILARLRSNADPMPSKQLNSVMVNALGEQWKSAFLAFNFKPIASASIGQVHQAYSDAGDNLAVKVQYPGIRKSIDSDVDNVGTLLKIVGLIPESVDYKGLLEEAKKQLYDEANYEREAQFACRYHEALQGHPHFVVPKIYPEISSQSVLAMSFIQGTPIEKIANYDQETRDFVMHNLLELLFKELFEFKMVQTDPNFANYLYLEESKQIGLLDFGATREYSERFSSGYRQAFSSVVNDDEQGLNDALEQIGFFAQSIKPEQRMAILDLVKMACEPMLIDEAYDFKASGLAQKLREAGTILSMEQDYWHTPPADAIFLHRKIGGMYLLAARIGAKVNIRRLVQPYLKINSGLEHHHHHH | not soluble
4 | MDSEKIKIFTRNYKGSLIMSKRSPKSVSEKLEIVLLRLEEGKSLSWLTRNQGISKDTLSNWVRKYKEAGVDGLEESRQWKKYSKELKEQAVSDYLNGLGSLKDLTKKYGISDPYVLRSWIKSYTSGKELKATSKGMRRMKQGRKTTFEERIEIVNFTLAHEKDYQGAVEKYGVSYQQIYSWVRKFEKDGSNGLLDRRGKGLTSKPNLTPEEELRLKIKQQEERIKYLEMENGLLKKLEEIKRRNRRLEHHHHHH | soluble
5 | MGSDKIHHHHHHMKPNIITVILAAGASSRFHGAKMLAKVKGNQSLLARSIVSLNKVTATAGIKAPAVVLGAHLNDEIMAITATSHQIINPDWQQGLSSSVKHASQYAIEQQADALLLVLADQVAIDVDDYLHLIERYQQNGLTSCAFYRQDVGVPAIFLAKDFAVLMSIDGDKGAKSILKQHDKNNSLNIISMEQAQFDIDTPADLARWLDNKD | not soluble
6 | MDIVDEKWEEYLKNLDEMSKSALLETFNIGASHAATALSEMTGKEVNISVPDLKIIAIKNVPEVVGEDVKVAVYIELGKDFSSHAFFIADYEDALRMFDIIMGNPLGTTKEMDEMVKSSFMEVGNILISAFANALSEFLGITIEQTPPSLAIDFLPAILDFALADIGKYCDYTIILQTNIKISDVKFEEHFLLFPKPEDMKKILEKLLGGFA | soluble
7 | SAEGSRGGPTCSGVGGRQDPVSGSGGCNFPEYELPELNTRAFHVGAFGELWRGRLRGAGDLSLREPPASALPGSQAADSDREDAAVARDLDCSLEAAAELRAVCGLDKLKCLEDGEDPEVIPENTDLVTLGVRKRFLEHREETITIDRACRQETFVYEMESHAIGKKPENSADMIEEGELILSVNILYPVIFHKHKEHKPYQTMLVLGSQKLTQLRDSIRCVSDLQIGGEFSNTPDQAPEHISKDLYKSAFFF | soluble
8 | MAGDPMPKNKILIYLLSTTLVLPTLVSPTAYADTPQKDTTAKTTSHDSKKSNDDETSKDTTSKDIDKADNNNTSNQDNNDKKFKTIDDSTSDSNNIIDFIYKNLPQTNINQLLTKNKYDDNYSLTTLIQNLFNLNSDISDYEQPRNGEKSTNDSNKNSDNSIKNDTDTQSSKQDKADNQKAPKSNNTKPSTSNKQPNSPKPTQPNQSNSQPASDDKANQKSSSKDNQSMSDSALDSILDQYSEDAKKTQKDYASQSKKDKNEKSNTKNPQLPTQDELKHKSKPAQSFNNDVNQKDTRATSLFETDPSISNNDDSGQFNVVDSKDTRQFVKSIAKDAHRIGQDNDIYASVMIAQAILESDSGRSALAKSPNHNLFGIKGAFEGNSVPFNTLEADGNKLYSINAGFRKYPSTKESLKDYSDLIKNGIDGNRTIYKPTWKSEADSYKDATSHLSKTYATDPNYAKKLNSIIKHYQLTQFDDERMPDLDKYERSIKDYDDSSDEFKPFREVSDSMPYPHGQCTWYVYNRMKQFGTSISGDLGDAHNWNNRAQYRDYQVSHTPKRHAAVVFEAGQFGADQHYGHVAFVEKVNSDGSIVISESNVKGLGIISHRTINAAAAEELSYITGKLEHHHHHH | soluble
9 | MGSDKIHHHHHHMTFEEFKDRLFALAKKNGVEVQISFLETREFSLRLANGDLDQYTDAGKFNVEIKVLKDGKTGTFRTQVLENPEKCFEEALSNLQVKDSEEKEYFFEGGKEYREMETYVGRFEKLSVKEKMDMAKKAHESAAKDERVVMVPTVMYKDMVIKKIITNTLGLDVESQMDGGFLFAMAIARDANPRSGSWYELARTPEDLNPEEIGKRAAEEAISLIGSKTIPSGKYPVLMRNTALLDLMEMFIPMISAENVQKNLSPLKGKLGEQVGNPAVSIKDLPYHPKGLSSTPFDDEGVPTTEKFVLENGVLKTFLHNLKTARKEGVEPTGNGFVGGIRPVNLMLMPGEKSFEELLKEMDRGVVITEVEGMHAGANSISGEFSLFAKGYWVENGEIAHGVEDITISGNFLDLLRKIVLVGNDVKVSQHTIAPSVLVEVLDVAGK | soluble
10 | MSSIGKEDIYESDGAASQVQKSEPENDNPTHPDIELISVDVDEALKKYKNRVLNLTSSDFSDSIAKKRRHAFGNNQYVLEVTGAGFSGTETAAEKLNRILYEVADLNEQIRADENLKTDLLNAEVLENLEKEVKTLQVAQSNGKTARVEHDVELPNVRTDSKVATLENRLRRIEQVIGSSVIPSAPVLDTIEDLKLRCETLNHSYVSGLEQRLNMMLTKLEKIDETRANNDIDENLDKKVDEILELMQKWDVACSSLPSNVNKVKALNRLHEQVQHFAGGLSHLKTIREKLEKEVAQGREAIIEYESQGKQEIGSVVEKLKLLEAKVADLK | not soluble
11 | MGHHHHHHSHMCGKFTLFSEFDDIIEQFNIDQFLPEGEYHPSYNVAPSQNILTIINDGSNNRLGKLRWGLIPPCAKDEKIGYKMINARAETLAEKPSFRKPLGSKRCIIPADSFYEWKRLDPKTKIPMRIKLKSSNLFAFAGLYEKWNTLEGNLLYTCTIITIKPSELMEDIHDRMPVILTDENKKEWLNPKNTDPDYLQSLLLPYDADDMEAYQVSSLVNSPELIESH | soluble
12 | SLRLKLSLTPKQDFSFDKINKHTIQGFIYSLLKDTEFGEMHNQPRFKFWCFSDIFPPNDFVKGEDKYLLISSPREEFINVLYERLDNLEEVNLNNFKFEVSELKKFDLKVKNKFITGSPIVLYKDKDRGEYIKFYDDDFDLMFFVQRLQDNAVKKYKAFYNEEPVLNGFIFDRISPRVRNGRVDVYVRIAKKGREFLVVGTTWKLLEKIKIRKEERKFYKFIMDCGLGEKNSLGFGFINPIK | not soluble
13 | MMTMWVFGYGSLMWNPGFPVARRELATLSGWSRSFCMSSIHHRGTEEKPGLVLALDAVHNARCRGIAFAVEPGHEARTLDELRERELISSAYLERELEIDLDIGERVCAVTYVIDPHHEQYCGGMPLERQAQIIATAIGGRGPNTEYLYNTAAHLAEIGLGDPDLDWLSARVREITSLEHHHHHH | soluble
14 | MSLHDYCLPCPTSLSGIAEVNPMSKPLVRWPINPLRTAVIVVDMQKVFCEPTGALYVKSTADIVQPIQKLLQAARAAQVMVIYLRHIVRGDGSDTGRMRDLYPNVDQILARHDPDVEVIEALAPQSDDVIVDKLFYSGFHNTDLDTVLRARDVDTIIVCGTVTNVCCETTIRDGVHREYKVIALSDANAAMDYPDVGFGAVSAADVQRISLTTIAYEFGEVTTTAEVIRRIESAYPHGREGHHHHHH | soluble
15 | AEQKTLHIYNWSDYIAPDTVANFEKETGIKVVYDVFDSNEVLEGKLMAGSTGFDLVVPSASFLERQLTAGVFQPLDKSKLPEWKNLDPELLKLVAKHDPDNKFAMPYMWATTGIGYNVDKVKAVLGENAPVDSWDLILKPENLEKLKSCGVSFLDAPEEVFATVLNYLGKDPNSTKADDYTGPATDLLLKLRPNIRYFHSSQYINDLANGDICVAIGWAGDVWQASNRAKEAKNGVNVSFSIPKEGAMAFFDVFAMPADAKNKDEAYQFLNYLLRPDVVAHISDHVFYANANKAATPLVSAEVRENPGIYPPADVRAKLFTLKVQDPKIDRVRTRAWTKVKSGK | soluble
16 | MQLQPFSQACENNKVPILAVLKSAFANTTRVLEIGSGTGQHAVYFATNLPQLFWQTSDQAEYLEGIKARCLLQGHQLGINNLGFPITLDVTAPWPVNGTHIDAVFSANTLHIMSKSMVEAFFNGLGEYLPQLNTLCIYGPFNYQGHYTSDSNRQFDHFLKQRDSESGIRDIEWIIALAQAQGLTLVEDIAMPTNNRLLHFKHLLALEHHHHHH | not soluble
17 | MGSDKIHHHHHHMMRKYSDKKNAQTQNYYKDRFYHAPHTVKSDVNESVFKEDFEVLKTQVEILNSFVELDFWVIEIKKEDNVKTLQMLKTLGYLSFTEASAIDFIADKNGFEVFYQLLNLEKKLRVRIKTFVGVKERLQSVAHVFKGANWSEREIYDMFGIFIINHPNLKRILMPDDWFGHPLLKTYPLKGDEFARWYEIDKIFGKEYREVVGEEQRDSGFADDKDTLNFARLYHEVPKGGQKKEISFKQEYQEDEGVAFVKKVKRDEAKILEKRR | not soluble
18 | MAVSKNVTVIPARKHTRKSKDEEKPKLRVAAYCRVSTDSEEQATSYDTQIEHYTAYIQGHPDWMLAGIFADDGISGTNTKKREEFNRMIDECMAGNIDMIITKSISRFARNTLDCLKYIRQLKDKNIPVYFEKENINTMDSKGEVMLTIMASLAQQESQSLSQNVKLGLQYRYQQGEIQVNCARFLGYTKDENKRLVVVPEEAEIVKRIYREYLEGASMLKIARGLEADGILNGAGNERWHTSNINNILRNEKYIGDALLQKTYTVDFLTKKRVKNNGIVPQYYVENSHEAIIPREVFMQVQEELIRRRIVHTSPNGKTRTFSSNHVFAQIIICGKCGEVFRRVHWNNRGKKSIVWRCVSRLENTGLFCDARTVLESTIEQVLVTAINQTLCDKDSFLTTLRDNIATIINRESDKALADIDKRLEELQTELLKLATSNADYEKVGDEIHSLRDQKQKLQVENANRDELKKQIADMSTFLKKQSTALAEYDKQLVRRLIDKVTVFEDKFTVEFKSGVTVDVDE | soluble
19 | MTELQHPVLVVDDETDILDLMEMTLMKMGLRVHTASGVAEAKNKLDSQRYSLVLTDMRMPDGSGLEVVQHINSRLLDTPVAVITAFGNADQAQEALRCGAFDPDTMQIQDYLDQIERDIIEQTLKQTEGNRTQAAKRLGISFRSMRYRMERLNIG | not soluble
